Experimental data reported in the supplement of paper PMC10567573.

Experiment: protein stability index of a GFP-peptide fusion (GPS, HEK-293T) (PSI 1-6); higher = more stable
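Further: lentivirally expressed fusions sorted by FACS into six bins by GFP to DsRed ratio, PSI derived from sequencing read proportions per bin multiplied by bin number.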

KKLKIFAMPMQDIKMILKMVQLDS [PRAME WT]
protein stability index (parent: IOH26126_36, c terminus: a fixed tail appended): 2.56

KLNCDPSRIYKPQTRLKRKQPVRK
protein stability index (parent: IOH26584_53, c terminus: a fixed tail appended): 3.47

FSPDFTLRNTLKSTSEDSLVKQEC
protein stability index (parent: IOH26921_45, c terminus: a fixed tail appended): 1.89

LELQRQREARKRALARKQAQEQLR
protein stability index (parent: IOH27062_37, c terminus: a fixed tail appended): 3.77

KTSLLDQLTNTSGTVIGVTSCIVI
protein stability index (parent: IOH26431_56, c terminus: a fixed tail appended): 3.09

LELKFVSSLRRQFEFSVDSFQIVL
protein stability index (parent: IOH26845_27, c terminus: a fixed tail appended): 3.08

CIQQILEAVLHCHQMGVVHRDLKP
protein stability index (parent: IOH26807_20, c terminus: a fixed tail appended): 2.46

MTVKPAKAASLARNLAKRRRTYLG
protein stability index (parent: IOH27062_1, c terminus: a fixed tail appended): 2.85

LLARLRELEQQIWKERDEYITKVS
protein stability index (parent: IOH26053_32, c terminus: a fixed tail appended): 1.67

LQEPGVFSPTPPQQFQPAGTDQVC
protein stability index (parent: IOH26591_36, c terminus: a fixed tail appended): 3.96

INPFTPDSLLLHSSGQCRRRKRTY
protein stability index (parent: IOH27052_40, c terminus: a fixed tail appended): 3.35

YCNFNKYIPRRLEEAAMQKCLVTE [RSAD1 WT]
protein stability index (parent: IOH26922_10, c terminus: a fixed tail appended): 2.08

LWILHLLLECYIQYHHSKIRNRGY
protein stability index (parent: IOH26789_18, c terminus: a fixed tail appended): 2.02

FTSSPSPFSSSSPENVEDSGLDSP
protein stability index (parent: IOH26137_77, c terminus: a fixed tail appended): 1.88

HLELTRKLQDLIKDVLRYGEEQLK
protein stability index (parent: IOH26137_15, c terminus: a fixed tail appended): 2.46

LEAAEVILEHAHRGEQTTSQVSWE
protein stability index (parent: IOH26591_31, c terminus: a fixed tail appended): 4.39

EVLRRLTSSVSCALDEAAAALTRM
protein stability index (parent: IOH26350_34, c terminus: a fixed tail appended): 1.95

QSSGKILLCPLCQEEEQAETPMAP
protein stability index (parent: IOH26053_9, c terminus: a fixed tail appended): 3.3

AGGFQQRQGLKYCLPLTFCIHTGL
protein stability index (parent: IOH26934_31, c terminus: a fixed tail appended): 2.73

FISRTSIPNAASEEGDEDDWASNK
protein stability index (parent: IOH27052_73, c terminus: a fixed tail appended): 4.02

AQVLMLGQILELPWKEETFLVLQS [FANCE WT]
protein stability index (parent: IOH26415_73, c terminus: a fixed tail appended): 2.44

EMVRFLLEAGADQEHKTDEMHTAL
protein stability index (parent: IOH26350_70, c terminus: a fixed tail appended): 2.65

FSDPSQSDPETKDFWLNMAALTEA
protein stability index (parent: IOH26137_117, c terminus: a fixed tail appended): 2.84

CPIIRIPNRFLRGHRPPPARSGHR
protein stability index (parent: IOH26494_13, c terminus: a fixed tail appended): 1.87

FGGTGIPFGESNGNGVHVCNVKYK
protein stability index (parent: IOH26494_29, c terminus: a fixed tail appended): 2.05

ILGKVILWILHLLLECYIQYHHSK
protein stability index (parent: IOH26789_17, c terminus: a fixed tail appended): 2.97

DKLALCHLELTRKLQDLIKDVLRY
protein stability index (parent: IOH26137_14, c terminus: a fixed tail appended): 2.73

FASDGDSGTCSPLRHSFQKQQREK
protein stability index (parent: IOH25868_71, c terminus: a fixed tail appended): 3.71

TLVEAIKEQDGREVDWEYFYGLLF
protein stability index (parent: IOH26584_46, c terminus: a fixed tail appended): 1.91

FQEAMTHLQHKLICTRKPEEIRGG
protein stability index (parent: IOH26845_36, c terminus: a fixed tail appended): 2.91

HDPLWRRHCKKYWLISEEEKTQKN
protein stability index (parent: IOH26934_9, c terminus: a fixed tail appended): 2.91

PLMGETQERERVLTHFSRRYCQCN
protein stability index (parent: IOH26041_63, c terminus: a fixed tail appended): 3.06

FIPAKTGKDVATQILEGELFDFDL
protein stability index (parent: IOH27062_49, c terminus: a fixed tail appended): 1.77

ILLVGYPPFWDEDQHRLYKQIKAG
protein stability index (parent: IOH26807_35, c terminus: a fixed tail appended): 2.33

LTHFSRRYCQCNPDDSTSEDGIHT
protein stability index (parent: IOH26041_65, c terminus: a fixed tail appended): 3.23

FLGSSFSPVRCGGPGDASPRGCGA
protein stability index (parent: IOH27052_23, c terminus: a fixed tail appended): 1.95

LSQMGAQSSGKILLCPLCQEEEQA
protein stability index (parent: IOH26053_8, c terminus: a fixed tail appended): 3.51

GEGTGSPPKWQIGEQEFEALMRML
protein stability index (parent: IOH25868_61, c terminus: a fixed tail appended): 3.11

GFSPIIGRFCGQQNPPVIKSSGRF
protein stability index (parent: IOH26431_19, c terminus: a fixed tail appended): 2.17

SARQGELQKVLLMLVDGIDPNFKM
protein stability index (parent: IOH26527_125, c terminus: a fixed tail appended): 1.73

FIDTYSDVGRYIDHYAAIKKAWDD
protein stability index (parent: IOH26934_14, c terminus: a fixed tail appended): 1.85

KAASLARNLAKRRRTYLGGAAGRS
protein stability index (parent: IOH27062_2, c terminus: a fixed tail appended): 2.6

DEEERRRRVFDVPIRRRRCSRLF
protein stability index (parent: IOH26934_79, c terminus: native): 2.81

QLQSMPSRELASMNLDIVDLLKKA [RHOBTB3 WT]
protein stability index (parent: IOH25836_87, c terminus: a fixed tail appended): 3.28

FHKDCASRVNNASYCPHCGEESSK
protein stability index (parent: IOH26527_103, c terminus: a fixed tail appended): 3.47

PDVENEVKRLLRSDAEAVSTRWEV [TAF7L WT]
protein stability index (parent: IOH26414_44, c terminus: a fixed tail appended): 3.49

VDVQTELYLEEIADRIIEVDMECQ
protein stability index (parent: IOH27062_43, c terminus: a fixed tail appended): 2.16

PSLLELAWEKLLAAFPNLANLSRT
protein stability index (parent: IOH26494_68, c terminus: a fixed tail appended): 2.3

YVKAKKSIDKDEEFAGSSPQSSKS
protein stability index (parent: IOH26921_28, c terminus: a fixed tail appended): 3.04

LRHSFQKQQREKTRWLNSGRGDEA
protein stability index (parent: IOH25868_73, c terminus: a fixed tail appended): 3.66

SSKEEQKLIATSNKPAVKLLYNRS [KCTD10 WT]
protein stability index (parent: IOH25947_25, c terminus: a fixed tail appended): 4.05

GGFPIIRDQIFRYVHDPECVATTG
protein stability index (parent: IOH26934_44, c terminus: a fixed tail appended): 1.75

EEINKNISDFGRQQLLPPFPSLHQ
protein stability index (parent: IOH26527_40, c terminus: a fixed tail appended): 2.94
